Data set [1] has as its target T1, [2Fe-2S]-IscR (wild type, anaerobically isolated) (Escherichia coli K12, UniProt P0AGK8 1-162).
T1 sequence: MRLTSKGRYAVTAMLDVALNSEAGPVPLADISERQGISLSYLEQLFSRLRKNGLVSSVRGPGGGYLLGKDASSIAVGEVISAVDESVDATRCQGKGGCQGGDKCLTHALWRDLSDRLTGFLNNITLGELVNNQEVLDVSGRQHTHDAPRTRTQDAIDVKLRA
Kind of data set: fluorescence anisotropy; [2Fe-2S]1+ cluster, anaerobic, no PMS; apparent Kd; Anisotropy: 40 mM Tris-Cl pH 7.9, 30 mM KCl, 5% glycerol, anaerobic unless stated, temperature not stated for the binding step; EMSA: 40 mM Tris-Cl pH 7.9, 150. The conditions noted are these: protein: recombinant; chain copies: 2; label: 5' Texas Red on strand 1; blunt. For orientation: Fluorescence polarisation rises when a labelled molecule tumbles more slowly, as on binding a larger partner.

For data set [2], the target named is T1, [2Fe-2S]-IscR (wild type, anaerobically …). Kind of data set: fluorescence anisotropy; air 15 min, then returned to anaerobic chamber and assayed anaerobically; Anisotropy: 40 mM Tris-Cl pH 7.9, 30 mM KCl, 5% glycerol, anaerobic unless stated, temperature not stated for the binding step; EMSA: 40 mM Tris-Cl pH 7.9, 150. The conditions noted are these: protein: recombinant; chain copies: 2; label: 5' Texas Red on strand 1; blunt.

B1: iscRB type 1 site 30 bp (dsDNA)
DNA 1: AAATAGTTGACCATTTTACTCGGGAATGTC
DNA 2: GACATTCCCGAGTAAAATGGTCAACTATTT
Regarding B1, the Kd in data set [1] was determined as 22 nM; in data set [2] it was 26 nM.

The record behind these values is article PMC12594620, “The Role of the [2Fe‐2S] Cluster of Escherichia coli IscR in Responding to Redox‐Cycling Agents”.
